{
  "source": "paper PMC4700671",
  "key": {"[1]": {"target": "myristoylated MMTV MA (matrix protein of mouse mammary tumor virus), wild type, with C-terminal His-tag (mouse mammary tumor virus) (UniProt P10258)", "assay": "AUC; sedimentation velocity, protein at 0.5 mg/mL in 50 mM Na2HPO4, 300 mM NaCl, 2.5 mM TCEP, pH 6.0; 50,000 rpm, 4 °C; absorbance at 280 nm; c(s) continuous size distribution; monomer to dimer"}, "[2]": {"target": "myristoylated MMTV MA (matrix protein of mouse mammary tumor virus), wild type, with C-terminal His-tag (mouse mammary tumor virus) (UniProt P10258)", "assay": "AUC; sedimentation velocity, protein at 5.0 mg/mL in 50 mM Na2HPO4, 300 mM NaCl, 2.5 mM TCEP, pH 6.0; 50,000 rpm, 4 °C; absorbance at 250 nm; c(s) continuous size distribution; monomer to dimer (and tetramer)"}, "[3]": {"target": "myristoylated MMTV MA triple mutant L11N/F12N/V15N, with C-terminal His-tag (mouse mammary tumor virus) (UniProt P10258)", "assay": "AUC; sedimentation velocity, protein at 0.5 mg/mL in 50 mM Na2HPO4, 300 mM NaCl, 2.5 mM TCEP, pH 6.0; 50,000 rpm, 4 °C; absorbance at 280 nm; c(s) continuous size distribution; monomer to dimer"}, "[4]": {"target": "myristoylated MMTV MA triple mutant L11N/F12N/V15N, with C-terminal His-tag (mouse mammary tumor virus) (UniProt P10258)", "assay": "AUC; sedimentation velocity, protein at 5.0 mg/mL in 50 mM Na2HPO4, 300 mM NaCl, 2.5 mM TCEP, pH 6.0; 50,000 rpm, 4 °C; absorbance at 250 nm; c(s) continuous size distribution; monomer to dimer (and tetramer)"}, "[5]": {"target": "nonmyristoylated MMTV MA (matrix protein of mouse mammary tumor virus), wild type, with C-terminal His-tag (mouse mammary tumor virus) (UniProt P10258)", "assay": "AUC; sedimentation velocity, protein at 5.0 mg/mL in 50 mM Na2HPO4, 300 mM NaCl, 2.5 mM TCEP, pH 6.0; 50,000 rpm, 4 °C; absorbance at 250 nm; c(s) continuous size distribution; monomer to dimer (and tetramer)"}},
  "note": "Several values for one entry are separate records, joined by “and”; a condition that tells them apart may be missing. Equal entries are not always repeated.",
  "data": [
    {"substance": "myristoylated MMTV MA (matrix protein of mouse mammary tumor virus), wild type, with C-terminal His-tag (from UniProt P10258 2-92) (domain or fragment)", "values": [
      {"measurement": "stoichiometry N", "setting": "[1]", "value": 2},
      {"measurement": "percent dimer", "setting": "[2]", "value": 98, "unit": "%"},
      {"measurement": "percent tetramer", "setting": "[2]", "value": 2, "unit": "%"},
      {"measurement": "stoichiometry N", "setting": "[2]", "value": "2 and 4"}
    ]},
    {"substance": "myristoylated MMTV MA triple mutant L11N/F12N/V15N, with C-terminal His-tag (from UniProt P10258 2-92) (domain or fragment)", "values": [
      {"measurement": "percent dimer", "setting": "[3]", "value": 48, "unit": "%"},
      {"measurement": "stoichiometry N", "setting": "[3]", "value": 2},
      {"measurement": "stoichiometry N", "setting": "[4]", "value": 2}
    ]},
    {"substance": "nonmyristoylated MMTV MA (matrix protein of mouse mammary tumor virus), wild type, with C-terminal His-tag (from UniProt P10258 2-92) (domain or fragment)", "values": [
      {"measurement": "percent dimer", "setting": "[5]", "value": 26, "unit": "%"},
      {"measurement": "stoichiometry N", "setting": "[5]", "value": 2}
    ]}
  ]
}
